The target in the assay is P2Y1R-i3-YFP-long2/tail-HT (human) (UniProt P47900). Description: FRET or BRET.
Sequence of UniProt P47900 (P47900 whole entry): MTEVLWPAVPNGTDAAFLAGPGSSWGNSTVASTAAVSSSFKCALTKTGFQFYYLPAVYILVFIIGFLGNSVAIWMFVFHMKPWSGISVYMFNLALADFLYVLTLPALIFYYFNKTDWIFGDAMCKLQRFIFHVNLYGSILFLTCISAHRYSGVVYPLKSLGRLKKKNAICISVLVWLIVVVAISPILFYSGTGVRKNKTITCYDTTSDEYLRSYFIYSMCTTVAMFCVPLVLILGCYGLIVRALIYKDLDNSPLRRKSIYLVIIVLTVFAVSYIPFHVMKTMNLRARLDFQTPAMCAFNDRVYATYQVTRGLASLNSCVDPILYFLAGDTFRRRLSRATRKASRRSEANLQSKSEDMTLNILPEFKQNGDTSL

“Gαq-CFP (from UniProt P21279 1-359) (natural protein)” had a ΔnF/ICFP by ADPβS 10 μmol/L (agonist-induced increase in FRET) of 0.014.

The values are drawn from paper PMC3841061.
